The values below come from KR20130126534A.

The target of the assay is TNF-α. The assay can be described thus: ELISA, TNF-α coated 100 ng/well, protein titrated from 100 nM, anti-Human Fc-HRP. A general note: An ELISA detects its analyte on a solid surface through an enzyme-linked reagent.

By Kd is commonly meant a measure of binding affinity in units of concentration. A lower Kd goes with tighter binding. On to “TNFR2 (단독) (from UniProt P20333 23-252) (Fc fusion)”, for which the Kd worked out at 0.068 nM.
